What was measured:
[1] = target: SHP2-C SH2; assay: SH2 binding enrichment of the phosphorylated peptide, bacterial display (enrichment ratio); higher = better substrate or ligand; peptides without Tyr show the background
[2] = target: c-Src SH2; assay: as above
[3] = target: Grb2 SH2 (UniProt P62993); assay: as above
[4] = system: c-Abl (mouse); assay: phosphorylation enrichment, bacterial display (enrichment ratio); higher = better substrate or ligand; peptides without Tyr show the background
[5] = target: Jak2 (UniProt O60674); assay: as above
[6] = target: MERTK (UniProt Q12866); assay: as above
[7] = system: Fer (mouse); assay: as above
[8] = target: EPHB1 (UniProt P54762); assay: as above
[9] = target: Fes (UniProt P07332); assay: as above
[10] = system: c-Src; assay: as above
[11] = system: AncSZ; assay: as above
[12] = target: FGFR3 (UniProt P22607); assay: as above
[13] = target: Hck (UniProt P08631); assay: as above
[14] = target: EPHB2 (UniProt P29323); assay: as above
[15] = target: FGFR1 (UniProt P11362); assay: as above
[16] = target: Fyn (UniProt P06241); assay: as above
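Wherever SH2 binding enrichment of the phosphorylated peptide, bacterial display is given: peptide library displayed on the E. coli surface as eCPX fusions, selected cells deep-sequenced, score is each peptide's frequency after selection divided by its frequency in the input.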
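Wherever phosphorylation enrichment, bacterial display is given: 11-residue human phosphosite peptides and single-mutation variants displayed on the E. coli surface, counted by deep sequencing, each peptide's frequency after selection divided by its frequency in the unselected input library; frequency after pTyr selection over input frequency; kinase dosed for 20-30% of maximal phosphorylation in three min.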

Chain of Fes (P07332 whole entry, looked up): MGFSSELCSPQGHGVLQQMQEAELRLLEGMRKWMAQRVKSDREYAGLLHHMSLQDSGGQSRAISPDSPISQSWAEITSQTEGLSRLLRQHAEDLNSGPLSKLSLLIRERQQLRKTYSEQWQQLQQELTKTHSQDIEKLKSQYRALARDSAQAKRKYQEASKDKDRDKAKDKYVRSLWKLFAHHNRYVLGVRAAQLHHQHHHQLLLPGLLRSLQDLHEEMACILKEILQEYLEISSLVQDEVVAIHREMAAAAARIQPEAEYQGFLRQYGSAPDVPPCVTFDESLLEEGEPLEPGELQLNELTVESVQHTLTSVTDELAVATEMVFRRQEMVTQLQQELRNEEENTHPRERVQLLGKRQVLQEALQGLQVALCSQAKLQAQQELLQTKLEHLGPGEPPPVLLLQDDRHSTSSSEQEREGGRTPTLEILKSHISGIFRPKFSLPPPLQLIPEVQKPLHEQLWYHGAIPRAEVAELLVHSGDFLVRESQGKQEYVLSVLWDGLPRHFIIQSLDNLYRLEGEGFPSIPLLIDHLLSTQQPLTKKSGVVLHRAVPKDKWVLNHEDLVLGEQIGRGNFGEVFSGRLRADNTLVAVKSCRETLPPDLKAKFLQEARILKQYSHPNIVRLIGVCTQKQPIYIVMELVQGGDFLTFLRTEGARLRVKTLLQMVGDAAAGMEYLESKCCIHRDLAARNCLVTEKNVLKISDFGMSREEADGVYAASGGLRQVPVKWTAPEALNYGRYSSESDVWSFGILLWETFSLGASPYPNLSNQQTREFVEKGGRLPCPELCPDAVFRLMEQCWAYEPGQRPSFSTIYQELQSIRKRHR
Chain of Hck (P08631 whole entry, looked up): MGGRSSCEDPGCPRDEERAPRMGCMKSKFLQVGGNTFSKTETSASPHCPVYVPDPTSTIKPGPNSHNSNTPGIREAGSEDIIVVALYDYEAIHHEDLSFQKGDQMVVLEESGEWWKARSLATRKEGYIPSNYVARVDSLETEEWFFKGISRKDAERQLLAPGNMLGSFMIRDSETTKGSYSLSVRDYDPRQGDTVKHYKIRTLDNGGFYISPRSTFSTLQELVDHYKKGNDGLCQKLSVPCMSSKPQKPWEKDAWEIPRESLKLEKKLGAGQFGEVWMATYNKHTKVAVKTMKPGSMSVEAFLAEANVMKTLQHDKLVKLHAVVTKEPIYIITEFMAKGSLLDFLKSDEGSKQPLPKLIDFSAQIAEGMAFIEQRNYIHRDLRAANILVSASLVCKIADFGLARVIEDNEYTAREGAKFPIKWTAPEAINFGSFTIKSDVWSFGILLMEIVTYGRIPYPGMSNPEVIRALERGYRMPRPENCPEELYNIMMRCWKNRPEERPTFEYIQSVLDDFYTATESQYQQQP
Chain of EPHB1 (P54762 whole entry, looked up): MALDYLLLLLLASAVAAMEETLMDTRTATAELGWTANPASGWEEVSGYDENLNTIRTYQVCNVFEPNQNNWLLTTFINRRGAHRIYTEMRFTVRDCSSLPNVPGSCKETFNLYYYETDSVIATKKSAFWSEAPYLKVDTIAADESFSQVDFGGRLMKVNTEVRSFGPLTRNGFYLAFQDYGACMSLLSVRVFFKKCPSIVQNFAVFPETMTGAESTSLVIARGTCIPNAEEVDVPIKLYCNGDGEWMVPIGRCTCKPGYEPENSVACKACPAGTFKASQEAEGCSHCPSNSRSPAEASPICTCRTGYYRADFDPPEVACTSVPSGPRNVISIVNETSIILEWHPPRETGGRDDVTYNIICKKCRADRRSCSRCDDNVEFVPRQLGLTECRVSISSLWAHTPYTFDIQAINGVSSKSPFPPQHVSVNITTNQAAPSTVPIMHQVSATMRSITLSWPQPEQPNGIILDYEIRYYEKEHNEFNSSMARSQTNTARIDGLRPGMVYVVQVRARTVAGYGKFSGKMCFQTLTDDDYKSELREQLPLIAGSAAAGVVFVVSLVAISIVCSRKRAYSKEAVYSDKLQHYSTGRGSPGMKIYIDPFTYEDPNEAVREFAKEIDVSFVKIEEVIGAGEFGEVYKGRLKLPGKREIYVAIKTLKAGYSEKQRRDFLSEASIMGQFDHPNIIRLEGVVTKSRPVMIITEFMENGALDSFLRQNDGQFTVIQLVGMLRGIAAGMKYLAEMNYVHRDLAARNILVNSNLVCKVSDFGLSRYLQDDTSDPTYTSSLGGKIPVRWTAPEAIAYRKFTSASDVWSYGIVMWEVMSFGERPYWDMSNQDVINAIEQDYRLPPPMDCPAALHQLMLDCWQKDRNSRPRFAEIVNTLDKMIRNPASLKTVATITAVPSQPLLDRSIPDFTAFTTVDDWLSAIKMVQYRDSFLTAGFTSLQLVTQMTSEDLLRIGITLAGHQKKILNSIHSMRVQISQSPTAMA
Chain of FGFR1 (P11362 whole entry, looked up): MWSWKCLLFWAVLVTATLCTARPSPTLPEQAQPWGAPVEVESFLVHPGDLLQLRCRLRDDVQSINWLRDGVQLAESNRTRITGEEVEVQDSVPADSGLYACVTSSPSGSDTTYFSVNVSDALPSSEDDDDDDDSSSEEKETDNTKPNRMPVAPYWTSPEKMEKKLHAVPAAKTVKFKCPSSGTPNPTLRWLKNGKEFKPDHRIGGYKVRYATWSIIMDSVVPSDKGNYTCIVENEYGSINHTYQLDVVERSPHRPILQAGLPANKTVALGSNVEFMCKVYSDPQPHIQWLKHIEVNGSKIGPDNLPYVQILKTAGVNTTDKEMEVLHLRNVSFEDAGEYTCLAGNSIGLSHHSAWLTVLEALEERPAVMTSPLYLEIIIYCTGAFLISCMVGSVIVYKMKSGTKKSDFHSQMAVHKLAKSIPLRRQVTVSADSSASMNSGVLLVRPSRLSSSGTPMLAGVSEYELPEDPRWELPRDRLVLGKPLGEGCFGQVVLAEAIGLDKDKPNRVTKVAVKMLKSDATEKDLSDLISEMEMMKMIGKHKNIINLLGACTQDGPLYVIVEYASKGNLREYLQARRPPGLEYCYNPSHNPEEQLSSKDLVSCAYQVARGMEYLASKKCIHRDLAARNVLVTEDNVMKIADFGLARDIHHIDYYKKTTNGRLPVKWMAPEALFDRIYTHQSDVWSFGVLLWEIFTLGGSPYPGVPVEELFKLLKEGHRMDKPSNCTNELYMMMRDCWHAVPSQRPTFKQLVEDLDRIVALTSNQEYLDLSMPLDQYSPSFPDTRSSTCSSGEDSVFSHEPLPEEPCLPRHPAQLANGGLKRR
Chain of FGFR3 (P22607 whole entry, looked up): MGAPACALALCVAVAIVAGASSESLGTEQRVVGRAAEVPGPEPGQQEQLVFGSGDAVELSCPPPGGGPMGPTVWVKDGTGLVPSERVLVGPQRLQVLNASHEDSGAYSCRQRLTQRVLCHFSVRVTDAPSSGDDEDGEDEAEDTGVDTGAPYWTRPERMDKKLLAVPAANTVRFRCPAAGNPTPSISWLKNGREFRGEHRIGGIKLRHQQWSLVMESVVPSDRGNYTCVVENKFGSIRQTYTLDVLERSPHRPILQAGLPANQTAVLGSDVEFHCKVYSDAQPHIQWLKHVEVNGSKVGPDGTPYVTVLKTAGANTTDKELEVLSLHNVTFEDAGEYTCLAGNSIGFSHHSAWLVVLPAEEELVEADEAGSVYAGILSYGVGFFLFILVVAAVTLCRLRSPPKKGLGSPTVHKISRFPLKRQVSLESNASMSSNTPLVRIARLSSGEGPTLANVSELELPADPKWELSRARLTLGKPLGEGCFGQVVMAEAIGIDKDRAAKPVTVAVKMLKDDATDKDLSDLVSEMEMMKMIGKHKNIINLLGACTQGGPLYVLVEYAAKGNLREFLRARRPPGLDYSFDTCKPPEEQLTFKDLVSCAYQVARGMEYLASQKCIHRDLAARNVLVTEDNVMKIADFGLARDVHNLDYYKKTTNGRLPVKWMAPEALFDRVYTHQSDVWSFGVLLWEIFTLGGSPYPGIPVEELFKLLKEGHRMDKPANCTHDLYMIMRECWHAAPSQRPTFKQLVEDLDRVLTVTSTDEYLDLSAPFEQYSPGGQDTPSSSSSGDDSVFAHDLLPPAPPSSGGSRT
Chain of Fyn (P06241 whole entry, looked up, the tested form may be a part): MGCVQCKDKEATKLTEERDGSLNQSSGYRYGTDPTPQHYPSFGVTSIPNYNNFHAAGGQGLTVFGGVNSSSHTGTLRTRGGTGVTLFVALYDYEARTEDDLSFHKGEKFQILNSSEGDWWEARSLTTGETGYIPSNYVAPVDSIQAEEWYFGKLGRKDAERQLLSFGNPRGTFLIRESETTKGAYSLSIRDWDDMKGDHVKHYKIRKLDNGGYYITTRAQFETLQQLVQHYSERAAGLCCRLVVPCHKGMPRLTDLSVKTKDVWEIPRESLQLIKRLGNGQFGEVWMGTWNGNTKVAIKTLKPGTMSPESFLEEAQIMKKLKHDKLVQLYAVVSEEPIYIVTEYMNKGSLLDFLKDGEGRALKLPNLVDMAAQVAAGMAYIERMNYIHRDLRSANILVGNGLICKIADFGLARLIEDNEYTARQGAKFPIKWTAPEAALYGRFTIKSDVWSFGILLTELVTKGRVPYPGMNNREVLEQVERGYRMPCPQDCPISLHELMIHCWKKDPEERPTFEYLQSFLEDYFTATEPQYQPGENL

| SH2 binding enrichment [1] | SH2 binding enrichment [2] | SH2 binding enrichment [3] | Sequence | phosphorylation enrichment [4] | phosphorylation enrichment [5] | phosphorylation enrichment [6] | phosphorylation enrichment [7] | phosphorylation enrichment [8] | phosphorylation enrichment [9] | phosphorylation enrichment [10] | phosphorylation enrichment [11] | phosphorylation enrichment [12] | phosphorylation enrichment [13] | phosphorylation enrichment [14] | phosphorylation enrichment [15] | phosphorylation enrichment [16] |
| --- | --- | --- | --- | --- | --- | --- | --- | --- | --- | --- | --- | --- | --- | --- | --- | --- |
| 0.999 | 0.823 | 1.1 | KPEKTYGLRKE [CEP43_Y267] | 0.782 | 0.683 | 0.441 | 0.395 | 0.433 | 0.766 | 0.43 | 0.595 | 0.614 | 0.503 | 0.409 | 0.344 | 0.46 |
| 1.5 | 10.2 | 0.967 | KPNMNYDKLSW [FLI1_Y332_R337W] | 0.41 | 0.746 | 0.481 | 0.555 | 0.644 | 0.741 | 0.446 | 0.751 | 0.59 | 0.661 | 0.893 | 0.428 | 0.486 |
| 0.57 | 0.457 | 0.971 | KRLWDYGMSSS [F8_Y1728_E1723K] | 0.536 | 0.666 | 0.359 | 0.339 | 0.429 | 0.706 | 0.394 | 0.592 | 0.511 | 0.337 | 0.461 | 0.399 | 0.341 |
| 0.626 | 0.47 | 0.771 | KSDVMYTDWKK [ORM1_Y175_V174M] | 0.689 | 0.764 | 0.562 | 0.463 | 0.488 | 0.842 | 0.616 | 0.738 | 0.682 | 2.03 | 0.454 | 0.416 | 0.485 |
| 0.528 | 1.9 | 0.873 | KSVSQYLEMDK [CAGE1_Y438] | 1.05 | 0.907 | 0.38 | 0.424 | 0.422 | 0.803 | 0.406 | 0.748 | 0.537 | 0.391 | 0.406 | 0.46 | 0.414 |
| 0.764 | 0.534 | 0.851 | KVDKEYEVGVR [GHR_Y226_R229G] | 0.658 | 0.553 | 0.41 | 0.398 | 0.434 | 0.796 | 0.414 | 0.752 | 0.493 | 0.452 | 0.48 | 0.472 | 0.401 |
| 0.495 | 0.43 | 0.896 | KVGNEYITKGQ [MYH7_Y410_V411I] | 0.564 | 0.561 | 0.356 | 0.315 | 0.358 | 0.682 | 0.403 | 0.593 | 0.443 | 0.399 | 0.414 | 0.444 | 0.376 |
| 0.676 | 0.471 | 0.89 | KVGNEYVTKGQ [MYH7_Y410] | 0.469 | 0.471 | 0.332 | 0.269 | 0.303 | 0.578 | 0.339 | 0.492 | 0.422 | 0.334 | 0.495 | 0.393 | 0.3 |
| 0.692 | 0.499 | 0.756 | KVKGEYDMTVP [AHNAK_Y964] | 0.372 | 0.543 | 0.463 | 0.637 | 0.491 | 0.744 | 0.414 | 0.669 | 0.607 | 0.443 | 0.36 | 0.469 | 0.434 |

Continued, sequence first:

| Sequence | SH2 binding enrichment [1] | SH2 binding enrichment [2] | SH2 binding enrichment [3] | phosphorylation enrichment [4] | phosphorylation enrichment [5] | phosphorylation enrichment [6] | phosphorylation enrichment [7] | phosphorylation enrichment [8] | phosphorylation enrichment [9] | phosphorylation enrichment [10] | phosphorylation enrichment [11] | phosphorylation enrichment [12] | phosphorylation enrichment [13] | phosphorylation enrichment [14] | phosphorylation enrichment [15] | phosphorylation enrichment [16] |
| --- | --- | --- | --- | --- | --- | --- | --- | --- | --- | --- | --- | --- | --- | --- | --- | --- |
| KPVEEYANCHL [TF_Y593] | 0.758 | 1.25 | 1.1 | 0.755 | 0.915 | 0.544 | 0.481 | 0.623 | 1.11 | 0.547 | 0.96 | 0.65 | 0.613 | 0.549 | 0.61 | 0.472 |
| KQLFAYKMLMA [TMC2_Y209_YF] | 1.07 | 1.01 | 1.25 | 0.711 | 0.773 | 0.386 | 0.445 | 0.562 | 0.926 | 0.439 | 0.858 | 0.677 | 0.566 | 0.594 | 0.548 | 0.475 |
| KRLAVYQAGAR [APOE_Y180] | 1.05 | 0.879 | 1.1 | 0.398 | 0.464 | 0.346 | 0.333 | 0.316 | 0.504 | 0.378 | 0.495 | 0.365 | 0.335 | 0.399 | 0.403 | 0.405 |
| KSEKVYTRHGV [FLOT1_Y56] | 0.824 | 0.579 | 0.866 | 0.401 | 0.444 | 0.427 | 0.417 | 0.354 | 0.527 | 0.34 | 0.502 | 0.341 | 0.346 | 0.339 | 0.439 | 0.254 |
| KSPDSYQKILL [ATM_Y1415] | 0.631 | 1.24 | 0.805 | 0.569 | 0.712 | 0.437 | 0.393 | 0.397 | 0.801 | 0.429 | 0.55 | 0.451 | 0.395 | 0.437 | 0.488 | 0.372 |
| KSSDVYVSFDC [SORL1_Y136_Y141C_YF] | 0.782 | 0.79 | 1.15 | 0.786 | 0.889 | 0.803 | 0.733 | 1.41 | 1.18 | 3.34 | 1.44 | 1.61 | 2.16 | 0.802 | 1.92 | 5.22 |
| KTGNIYRTEFG [MRPL3_Y265_M261T_YF] | 0.871 | 0.547 | 1.15 | 0.457 | 0.468 | 0.413 | 0.35 | 0.422 | 0.542 | 0.349 | 0.585 | 0.491 | 0.435 | 0.377 | 0.517 | 0.437 |
| KTVQDYLEKFF [MMP8_Y36_YF] | 0.719 | 0.64 | 0.953 | 0.874 | 0.986 | 0.514 | 0.485 | 0.504 | 1.28 | 0.446 | 1.14 | 0.692 | 0.502 | 0.602 | 0.643 | 0.519 |
